In patent publication US20220282288A1, “NOVEL OLEATE HYDRATASES” (BRAIN BIOTECH AG, priority 2019, published 2022):

What was measured:
[1] = Kim, Bi-Na et al. (2012); cited from earlier work
[2] = Effects of temperature on enzyme activity (oleic acid to 10-hydroxystearic acid); format: biochemical; details: pH7.0, 150 mM oleic acid, 20 min
Experimental: The reactions were performed in 100 mM citrate/phosphate buffer (pH7.0) containing MgSO4;
3.1 mg/ml total protein of Lactococcus lactis (a) or 5.6 mg/mL of total protein of chimeric oleate hydratase from Lysinibacillus fusiformis and Lactococcus lactis (b). FAD (0.1 mM) and NADH (5 mM) were applied for the FAD-reducing conditions. Reactions were started by the addition of 150 mM oleic acid for 20 min. At the relative activity of 100%, the specific enzyme activity of the oleate hydratase from Lactococcus lactis was 0.8 μmol min^−1 mg^−1 total protein and the specific enzyme activity of the chimeric oleate hydratase from Lysinibacillus fusiformis and Lactococcus lactis was 1.0 μmol min^−1 mg^−1 total protein.

[3] = Conversion of oleic acid to 10-hydroxystearic acid by cell-free extracts (HPLC); format: biochemical; details: for activity at 30° C. compared with the wildtype enzymes: FIG. 3; for conversion of oleic acid to 10-hydroxystearic acid: cell-free extracts, pH7.0, 30° C., 150 mM oleic acid, 60 min, FAD 0.1 mM, NADH 5 mM, HPLC analysis
[4] = Effects of pH on enzyme activity (oleic acid to 10-hydroxystearic acid, HPLC-MS); format: biochemical; details: citrate/phosphate buffer pH 5.6-8.0, 30° C., 40 min, 150 mM oleic acid
Experimental: The reactions were performed in 100 mM citrate/phosphate buffer (pH levels ranging from 5.6-8.0) containing MgSO4; 8.9 mg/ml total protein of Lactococcus lactis or 9.3 mg/mL of total protein of chimeric oleate hydratase from Lysinibacillus fusiformis and Lactococcus lactis. FAD (0.1 mM) and NADH (5 mM) were applied for the FAD-reducing conditions. Reactions were started by the addition of 150 mM oleic acid at 30° C. for 40 min. Following the reactions, the solutions of fatty acids and hydroxy fatty acids were recovered by three consecutive extractions with 1.6 volume of dichloromethane. After solvent evaporation, the resultant sample was diluted in ethanol and analyzed by HPLC-MS. Analyses were performed on an Agilent 1100 HPLC instrument equipped with evaporative light scattering detector (ELSD) and a Luna® C18 (2) HPLC column (RP-18e 5 μm, 250×4.6 mm) maintained at 50° C. The elution system consisted of ddH2O with 0.1% formic acid (A) and methanol with 0.1% formic acid (B). The gradient was set as follows: 0 min (80% B); 15 min (100% B); 23.2 min (80% B) at a flow rate of 0.7 mL min^−1.
Data represent the mean±standard deviation of three independent experiments (FIG. 5A and FIG. 6A).

B1: oleate hydratase from Lysinibacillus fusiformis: oleate hydratase of Lysinibacillus fusiformis, known from the prior art (protein, listed as Lysinibacillus fusiformis)
chain: MYYSNGNYEAFARPKKPEGVDGKSAYLIGSGLASLSAACFLIRDGQMKGENIHILEELDISGGSLDGILNPTRGFIIRGGREMEDHFECLWDLFRSIPSLEVDNASVLDEFYWLNKEDPNYSKCRLIKDRGQRLEDDGKFTLSDQSSEEMIKLFFTPEEKLEDKKITDVFSEEFFESNFWLYWSTMFAFEKWHSAMEMRRYIMRFIHHIGGLPDLSALKFTKYNQYESLVLPMIKYLEGHDVDFQYNTVVENVLVDKVGDKKVAHTLVLRKNGVKENIELTENELVFVTNGSITESTTYGDNYTPAPVNKELGGSWSLWKNIAAQDTDFGRPEKFCDNLPKESWFVSATLTTLDDRVAPYIEKISKRDPYAGKVVTGGIVTATDSNWMLSYTLNRQPHFKHQPKDQLVVWIYGLLSNKPGDFIKKSITECSGIEIAQEWLYHMGVPVDEIPDIAQNSCNTIPCYMPYITSYFMPRAMGDRPLVVPEGSANLAFIGNFSETVRDTVFTTEYSVRTAMEAVYQLLNIDRGVPEVFASSFDVRTLLASTARLLDGKKLTDIDAPFILKQIGKLGIHKTKDTIIYDLLKESELI
modifications: Oleat Hydratase
notes: oleate hydratase of Lysinibacillus fusiformis, known from the prior art
For B1, the “temperature of maximal enzyme activity” value [1] is given as 35 °C.

B2: oleate hydratase from Lactococcus lactis: oleate hydratase of Lactococcus lactis strain A106, previously annotated as linoleate isomerase (protein, listed as Lactococcus lactis)
chain: MRYTNGNYEAFVHPRKPENVDQKSAYIIGAGLAGLATAVFLIRDGQMSGDRIHILEELPLSGGSLDGSFIPHDGFVVRGGREMENHFECLWDLFRTIPSLEVDNASVLDEFYRIDRDDPNSSNCRIIHNRGERVDDDGKFTLSPKAQEEIIKLFMTKEELLVGKTIEDCFTDEFFESNFWLYWCSMFAFEKWHSAIEMRRYIMRFIHHIEGLPDFSALKFTKYNQYESLVKPLISYLKDHGVDFKYGAQVENVEVDFSNGKKVAKAIVFADKKIKELTGNDLVFVTNGSITESSTQGSPTQVAPKTSELGGSWKLWQNLAKQSEEFGHPDVFCKDIPKEAWVVSATVTWKNLKIQPYFEKLTHRQLRSGKVVTGGIVTVKDSNWLLSFTTHRQPHFKEQNDQETVTWVYGLLSNTPGNYIKKPIEDCTGEEITQELLYHLGMPEEEIEAFVKENTNTIPVYMPFITSYFMLREPGDRPLVVPEQSVNLAFLGNFAETERDTVFTTEYSVRTAMEAVYQLLNVDRGVPEVYASAYDLRTLASSAYYLSDKQKLEDLELSFIKKQALKVGLKKIKGTYIEELLEDAGLI
modifications: Oleat Hydratase
notes: oleate hydratase of Lactococcus lactis strain A106, previously annotated as linoleate isomerase
In the case of B2, the “specific enzyme activity at the relative activity of 100%” value [2] is reported as 0.8 μmol min^−1 mg^−1 total protein and the “temperature of highest enzyme activity (temperature optimum)” value [2] is reported as 15 °C.

B3: 1Lf-2LI: chimeric oleate hydratase: 193 N-terminal amino acids of Lysinibacillus fusiformis enzyme and 394 C-terminal amino acids of Lactococcus lactis enzyme (protein)
chain: MYYSNGNYEAFARPKKPEGVDGKSAYLIGSGLASLSAACFLIRDGQMKGENIHILEELDISGGSLDGILNPTRGFIIRGGREMEDHFECLWDLFRSIPSLEVDNASVLDEFYWLNKEDPNYSKCRLIKDRGQRLEDDGKFTLSDQSSEEMIKLFFTPEEKLEDKKITDVFSEEFFESNFWLYWSTMFAFEKWHSAIEMRRYIMRFIHHIEGLPDFSALKFTKYNQYESLVKPLISYLKDHGVDFKYGAQVENVEVDFSNGKKVAKAIVFADKKIKELTGNDLVFVTNGSITESSTQGSPTQVAPKTSELGGSWKLWQNLAKQSEEFGHPDVFCKDIPKEAWVVSATVTWKNLKIQPYFEKLTHRQLRSGKVVTGGIVTVKDSNWLLSFTTHRQPHFKEQNDQETVTWVYGLLSNTPGNYIKKPIEDCTGEEITQELLYHLGMPEEEIEAFVKENTNTIPVYMPFITSYFMLREPGDRPLVVPEQSVNLAFLGNFAETERDTVFTTEYSVRTAMEAVYQLLNVDRGVPEVYASAYDLRTLASSAYYLSDKQKLEDLELSFIKKQALKVGLKKIKGTYIEELLEDAGLI
modifications: OhyLfus581Llac
notes: chimeric oleate hydratase: 193 N-terminal amino acids of Lysinibacillus fusiformis enzyme and 394 C-terminal amino acids of Lactococcus lactis enzyme
In the case of B3, the “specific enzyme activity at the relative activity of 100%” value [2] is reported as 1.0 μmol min^−1 mg^−1 total protein, the “activity at 30° C. compared with the wildtype enzymes” value [3] is reported as “higher than the wildtype enzyme from Lactococcus lactis and lower than the wildtype enzyme from Lysinibacillus fusiformis” and the “conversion of oleic acid to 10-hydroxystearic acid” value [3] is reported as “confirmed”. For the same molecule, the pH optimum [4] was 6.5.

B4: 1LI-2Lf: chimeric oleate hydratase: 193 N-terminal amino acids of Lactococcus lactis enzyme and 397 C-terminal amino acids of Lysinibacillus fusiformis enzyme (protein)
chain: MRYTNGNYEAFVHPRKPENVDQKSAYIIGAGLAGLATAVFLIRDGQMSGDRIHILEELPLSGGSLDGSFIPHDGFVVRGGREMENHFECLWDLFRTIPSLEVDNASVLDEFYRIDRDDPNSSNCRIIHNRGERVDDDGKFTLSPKAQEEIIKLFMTKEELLVGKTIEDCFTDEFFESNFWLYWCSMFAFEKWHSAMEMRRYIMRFIHHIGGLPDLSALKFTKYNQYESLVLPMIKYLEGHDVDFQYNTVVENVLVDKVGDKKVAHTLVLRKNGVKENIELTENELVFVTNGSITESTTYGDNYTPAPVNKELGGSWSLWKNIAAQDTDFGRPEKFCDNLPKESWFVSATLTTLDDRVAPYIEKISKRDPYAGKVVTGGIVTATDSNWMLSYTLNRQPHFKHQPKDQLVVWIYGLLSNKPGDFIKKSITECSGIEIAQEWLYHMGVPVDEIPDIAQNSCNTIPCYMPYITSYFMPRAMGDRPLVVPEGSANLAFIGNFSETVRDTVFTTEYSVRTAMEAVYQLLNIDRGVPEVFASSFDVRTLLASTARLLDGKKLTDIDAPFILKQIGKLGIHKTKDTIIYDLLKESELI
modifications: OhyLlac579Lfus
notes: chimeric oleate hydratase: 193 N-terminal amino acids of Lactococcus lactis enzyme and 397 C-terminal amino acids of Lysinibacillus fusiformis enzyme
In the case of B4, the “activity at 30° C. compared with the wildtype enzymes” value [3] is reported as “higher than the wildtype enzyme from Lactococcus lactis and lower than the wildtype enzyme from Lysinibacillus fusiformis” and the “conversion of oleic acid to 10-hydroxystearic acid” value [3] is reported as “confirmed”.
